Measured values published in article PMC6631321 (Science signaling, 2019).
Several values for one entry are separate records, joined by “and”; a condition that tells them apart may be missing. Identical values can stand only once. One block for each molecule: values may come before it.

Assays:
[1] = molecular target: the remaining proteins (α-actinin, afadin, band 4.1B, Scrib, and ZO-1); assay: co-IP
[2] = molecular target: T1, RFP-ASPP2 (UniProt Q13625 1-1128); assay: pull-down
T1 sequence (looked up): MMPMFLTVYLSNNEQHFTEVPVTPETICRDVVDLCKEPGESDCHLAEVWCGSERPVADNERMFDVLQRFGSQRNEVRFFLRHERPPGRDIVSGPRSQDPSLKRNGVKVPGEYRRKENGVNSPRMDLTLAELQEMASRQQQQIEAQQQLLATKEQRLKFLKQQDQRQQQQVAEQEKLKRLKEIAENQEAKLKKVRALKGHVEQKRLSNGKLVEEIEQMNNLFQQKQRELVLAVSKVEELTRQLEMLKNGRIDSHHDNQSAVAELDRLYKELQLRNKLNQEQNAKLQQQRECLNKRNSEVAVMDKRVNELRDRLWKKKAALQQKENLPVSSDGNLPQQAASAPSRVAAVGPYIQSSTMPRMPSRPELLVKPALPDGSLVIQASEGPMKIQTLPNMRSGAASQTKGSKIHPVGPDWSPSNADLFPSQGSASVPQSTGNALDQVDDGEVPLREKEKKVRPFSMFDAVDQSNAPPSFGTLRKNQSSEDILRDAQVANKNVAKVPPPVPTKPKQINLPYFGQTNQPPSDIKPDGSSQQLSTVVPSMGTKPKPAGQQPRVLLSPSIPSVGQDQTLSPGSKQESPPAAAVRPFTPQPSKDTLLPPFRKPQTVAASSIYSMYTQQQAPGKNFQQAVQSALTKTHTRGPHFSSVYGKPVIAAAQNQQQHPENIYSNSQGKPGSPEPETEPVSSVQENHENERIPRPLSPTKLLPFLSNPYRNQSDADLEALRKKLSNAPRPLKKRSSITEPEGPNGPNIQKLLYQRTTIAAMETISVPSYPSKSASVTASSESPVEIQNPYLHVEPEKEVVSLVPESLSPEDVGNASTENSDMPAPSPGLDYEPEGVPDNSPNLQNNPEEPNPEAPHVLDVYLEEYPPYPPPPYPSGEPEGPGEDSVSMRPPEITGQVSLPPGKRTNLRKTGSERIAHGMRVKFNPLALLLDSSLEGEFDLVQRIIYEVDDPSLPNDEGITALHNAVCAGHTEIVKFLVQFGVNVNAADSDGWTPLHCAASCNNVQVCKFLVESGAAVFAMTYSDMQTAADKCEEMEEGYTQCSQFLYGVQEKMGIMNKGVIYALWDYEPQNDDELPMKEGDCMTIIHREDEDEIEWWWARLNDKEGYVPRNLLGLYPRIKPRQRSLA

[3] = molecular target: T2, RFP-Lats1 (UniProt O95835 1-1130); assay: pull-down
T2 sequence (looked up): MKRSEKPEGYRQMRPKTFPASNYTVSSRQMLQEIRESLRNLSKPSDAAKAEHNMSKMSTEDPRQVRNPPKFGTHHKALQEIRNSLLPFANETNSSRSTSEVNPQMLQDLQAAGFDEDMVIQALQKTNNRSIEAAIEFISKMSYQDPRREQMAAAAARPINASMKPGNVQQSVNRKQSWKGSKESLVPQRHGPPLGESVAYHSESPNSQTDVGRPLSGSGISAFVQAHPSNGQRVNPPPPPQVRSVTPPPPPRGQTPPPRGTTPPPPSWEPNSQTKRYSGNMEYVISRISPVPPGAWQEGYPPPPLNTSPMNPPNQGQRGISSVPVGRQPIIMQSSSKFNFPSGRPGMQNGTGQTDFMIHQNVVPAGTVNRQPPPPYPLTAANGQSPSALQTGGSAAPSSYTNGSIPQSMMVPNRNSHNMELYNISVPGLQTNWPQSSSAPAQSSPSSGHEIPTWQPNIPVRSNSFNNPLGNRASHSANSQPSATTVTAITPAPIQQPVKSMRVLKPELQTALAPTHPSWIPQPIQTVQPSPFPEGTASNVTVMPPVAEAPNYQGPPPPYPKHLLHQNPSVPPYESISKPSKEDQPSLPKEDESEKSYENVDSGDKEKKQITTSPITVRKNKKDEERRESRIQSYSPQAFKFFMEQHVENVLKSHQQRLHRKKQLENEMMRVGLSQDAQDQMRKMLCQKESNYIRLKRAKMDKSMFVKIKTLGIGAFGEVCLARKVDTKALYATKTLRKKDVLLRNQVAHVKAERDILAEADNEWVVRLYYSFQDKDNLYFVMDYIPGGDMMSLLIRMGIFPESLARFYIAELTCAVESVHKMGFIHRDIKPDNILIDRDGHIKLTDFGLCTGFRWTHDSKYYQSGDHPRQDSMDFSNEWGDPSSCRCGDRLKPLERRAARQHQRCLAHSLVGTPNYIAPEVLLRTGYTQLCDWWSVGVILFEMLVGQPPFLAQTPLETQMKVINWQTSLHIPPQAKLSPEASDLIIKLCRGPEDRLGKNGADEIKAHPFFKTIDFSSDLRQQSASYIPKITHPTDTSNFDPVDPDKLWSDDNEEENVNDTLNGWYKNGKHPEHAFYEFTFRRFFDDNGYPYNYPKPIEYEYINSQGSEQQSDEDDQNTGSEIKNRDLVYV

[4] = molecular target: RFP-Angiomotin, Q4VCS5; assay: pull-down; conditions: remark: other sources report otherwise
Sequence of RFP-Angiomotin, Q4VCS5 (Q4VCS5 whole entry): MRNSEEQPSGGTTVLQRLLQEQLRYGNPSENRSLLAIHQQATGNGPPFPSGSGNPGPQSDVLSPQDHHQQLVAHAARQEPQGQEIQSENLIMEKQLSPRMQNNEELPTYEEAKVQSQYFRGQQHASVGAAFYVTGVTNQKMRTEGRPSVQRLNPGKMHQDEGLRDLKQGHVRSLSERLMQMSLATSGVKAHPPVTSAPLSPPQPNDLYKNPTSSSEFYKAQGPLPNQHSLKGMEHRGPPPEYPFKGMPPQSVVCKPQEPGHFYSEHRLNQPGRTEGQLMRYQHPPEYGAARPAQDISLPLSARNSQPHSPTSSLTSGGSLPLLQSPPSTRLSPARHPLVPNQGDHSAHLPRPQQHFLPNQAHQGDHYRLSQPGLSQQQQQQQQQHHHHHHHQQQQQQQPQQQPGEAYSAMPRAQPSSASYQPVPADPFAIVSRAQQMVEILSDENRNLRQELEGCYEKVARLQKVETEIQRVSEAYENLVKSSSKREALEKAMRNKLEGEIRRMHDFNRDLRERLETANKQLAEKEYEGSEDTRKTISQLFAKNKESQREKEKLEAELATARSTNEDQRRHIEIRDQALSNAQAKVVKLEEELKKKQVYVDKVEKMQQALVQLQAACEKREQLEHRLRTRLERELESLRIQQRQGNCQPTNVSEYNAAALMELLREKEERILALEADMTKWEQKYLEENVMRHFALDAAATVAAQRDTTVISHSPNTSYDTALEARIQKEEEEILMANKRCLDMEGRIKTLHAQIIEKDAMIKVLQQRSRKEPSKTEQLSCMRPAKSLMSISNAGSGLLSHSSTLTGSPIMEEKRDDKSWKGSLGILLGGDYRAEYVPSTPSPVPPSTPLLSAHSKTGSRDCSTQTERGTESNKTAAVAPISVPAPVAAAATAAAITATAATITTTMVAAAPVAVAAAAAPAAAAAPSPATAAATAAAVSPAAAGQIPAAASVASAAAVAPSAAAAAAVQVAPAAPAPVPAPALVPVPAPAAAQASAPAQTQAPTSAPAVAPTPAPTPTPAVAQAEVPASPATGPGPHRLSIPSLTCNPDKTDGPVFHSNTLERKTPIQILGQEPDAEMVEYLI

[5] = molecular target: T2, RFP-Lats1; assay: co-IP
[6] = molecular target: RFP-Angiomotin, Q4VCS5; assay: co-IP; conditions: remark: other sources report otherwise
[7] = molecular target: T1, RFP-ASPP2; assay: pull-down; remark: listed apart in the source

fold over the negative control (RFP alone), co-precipitated luciferase [1]: 2 fold and 5 fold
Molecule: Merlin-NLuc (from UniProt P35240 1-595) (natural protein)

fold over the negative control (RFP alone), bound luciferase [2]: 125 fold
fold over the negative control (RFP alone), bound luciferase [3]: 268 fold
fold over the negative control (RFP alone), bound luciferase [4]: 2300 fold
fold over the negative control (RFP alone), co-precipitated luciferase [5]: > 20 fold
fold over the negative control (RFP alone), co-precipitated luciferase [6]: 100 fold
B1: Merlin-NLuc (natural protein, UniProt P35240 1-595, looked up)
chain: MAGAIASRMSFSSLKRKQPKTFTVRIVTMDAEMEFNCEMKWKGKDLFDLVCRTLGLRETWFFGLQYTIKDTVAWLKMDKKVLDHDVSKEEPVTFHFLAKFYPENAEEELVQEITQHLFFLQVKKQILDEKIYCPPEASVLLASYAVQAKYGDYDPSVHKRGFLAQEELLPKRVINLYQMTPEMWEERITAWYAEHRGRARDEAEMEYLKIAQDLEMYGVNYFAIRNKKGTELLLGVDALGLHIYDPENRLTPKISFPWNEIRNISYSDKEFTIKPLDKKIDVFKFNSSKLRVNKLILQLCIGNHDLFMRRRKADSLEVQQMKAQAREEKARKQMERQRLAREKQMREEAERTRDELERRLLQMKEEATMANEALMRSEETADLLAEKAQITEEEAKLLAQKAAEAEQEMQRIKATAIRTEEEKRLMEQKVLEAEVLALKMAEESERRAKEADQLKQDLQEAREAERRAKQKLLEIATKPTYPPMNPIPAPLPPDIPSFNLIGDSLSFDFKDTDMKRLSMEIEKEKVEYMEKSKHLQEQLNELKTEIEALKLKERETALDILHNENSDRGGSSKHNTIKKLTLQSAKSRVAFFEEL

fold less than binding to wild-type Merlin [7]: > 2 fold
B2: Merlin S518D (natural protein, UniProt P35240 1-595, looked up)
chain: MAGAIASRMSFSSLKRKQPKTFTVRIVTMDAEMEFNCEMKWKGKDLFDLVCRTLGLRETWFFGLQYTIKDTVAWLKMDKKVLDHDVSKEEPVTFHFLAKFYPENAEEELVQEITQHLFFLQVKKQILDEKIYCPPEASVLLASYAVQAKYGDYDPSVHKRGFLAQEELLPKRVINLYQMTPEMWEERITAWYAEHRGRARDEAEMEYLKIAQDLEMYGVNYFAIRNKKGTELLLGVDALGLHIYDPENRLTPKISFPWNEIRNISYSDKEFTIKPLDKKIDVFKFNSSKLRVNKLILQLCIGNHDLFMRRRKADSLEVQQMKAQAREEKARKQMERQRLAREKQMREEAERTRDELERRLLQMKEEATMANEALMRSEETADLLAEKAQITEEEAKLLAQKAAEAEQEMQRIKATAIRTEEEKRLMEQKVLEAEVLALKMAEESERRAKEADQLKQDLQEAREAERRAKQKLLEIATKPTYPPMNPIPAPLPPDIPSFNLIGDSLSFDFKDTDMKRLDMEIEKEKVEYMEKSKHLQEQLNELKTEIEALKLKERETALDILHNENSDRGGSSKHNTIKKLTLQSAKSRVAFFEEL

fold greater than binding to wild-type Merlin [7]: ~2 fold
B3: Merlin S518A (natural protein, UniProt P35240 1-595, looked up)
chain: MAGAIASRMSFSSLKRKQPKTFTVRIVTMDAEMEFNCEMKWKGKDLFDLVCRTLGLRETWFFGLQYTIKDTVAWLKMDKKVLDHDVSKEEPVTFHFLAKFYPENAEEELVQEITQHLFFLQVKKQILDEKIYCPPEASVLLASYAVQAKYGDYDPSVHKRGFLAQEELLPKRVINLYQMTPEMWEERITAWYAEHRGRARDEAEMEYLKIAQDLEMYGVNYFAIRNKKGTELLLGVDALGLHIYDPENRLTPKISFPWNEIRNISYSDKEFTIKPLDKKIDVFKFNSSKLRVNKLILQLCIGNHDLFMRRRKADSLEVQQMKAQAREEKARKQMERQRLAREKQMREEAERTRDELERRLLQMKEEATMANEALMRSEETADLLAEKAQITEEEAKLLAQKAAEAEQEMQRIKATAIRTEEEKRLMEQKVLEAEVLALKMAEESERRAKEADQLKQDLQEAREAERRAKQKLLEIATKPTYPPMNPIPAPLPPDIPSFNLIGDSLSFDFKDTDMKRLAMEIEKEKVEYMEKSKHLQEQLNELKTEIEALKLKERETALDILHNENSDRGGSSKHNTIKKLTLQSAKSRVAFFEEL
